Laboratory results from publication PMC10163027, “Coordinated regulation of vegetative phase change by brassinosteroids and the age pathway in Arabidopsis” (Nature Communications, 2023).

B1: GST-BIN2 (enzyme, Arabidopsis, UniProt Q39011 1-380, looked up)
chain: MADDKEMPAAVVDGHDQVTGHIISTTIGGKNGEPKQTISYMAERVVGTGSFGIVFQAKCLETGETVAIKKVLQDRRYKNRELQLMRVMDHPNVVCLKHCFFSTTSKDELFLNLVMEYVPESLYRVLKHYSSANQRMPLVYVKLYMYQIFRGLAYIHNVAGVCHRDLKPQNLLVDPLTHQVKICDFGSAKQLVKGEANISYICSRFYRAPELIFGATEYTTSIDIWSAGCVLAELLLGQPLFPGENAVDQLVEIIKVLGTPTREEIRCMNPHYTDFRFPQIKAHPWHKIFHKRMPPEAIDFASRLLQYSPSLRCTALEACAHPFFDELREPNARLPNGRPFPPLFNFKQEVAGSSPELVNKLIPDHIKRQLGLSFLNQSGT
notes: BIN2, GSK3-like kinase of Arabidopsis; the BIN2 ORF was cloned into pPGH (derived from pGEX4T-2); Printed both as GST-BIN2 and BIN2-GST; a vector derived from pGEX4T-2 would put GST at the N-terminus (surmised); also called BIN2-GST; pPGH-BIN2; source: E. coli Rosetta (DE3), purified (GST resin)
B2: 6×His-SPL9 (natural protein, Arabidopsis, UniProt Q700W2 1-375, looked up)
chain: MEMGSNSGPGHGPGQAESGGSSTESSSFSGGLMFGQKIYFEDGGGGSGSSSSGGRSNRRVRGGGSGQSGQIPRCQVEGCGMDLTNAKGYYSRHRVCGVHSKTPKVTVAGIEQRFCQQCSRFHQLPEFDLEKRSCRRRLAGHNERRRKPQPASLSVLASRYGRIAPSLYENGDAGMNGSFLGNQEIGWPSSRTLDTRVMRRPVSSPSWQINPMNVFSQGSVGGGGTSFSSPEIMDTKLESYKGIGDSNCALSLLSNPHQPHDNNNNNNNNNNNNNNTWRASSGFGPMTVTMAQPPPAPSQHQYLNPPWVFKDNDNDMSPVLNLGRYTEPDNCQISSGTAMGEFELSDHHHQSRRQYMEDENTRAYDSSSHHTNWSL
notes: SPL9 of Arabidopsis; the SPL9 ORF was cloned into pET-30a (+); Printed both as 6×His-SPL9 and SPL9-His; pET-30a(+) may add further vector residues (surmised); also called SPL9-His; SPL9-HIS; source: E. coli Rosetta (DE3), purified (Ni-NTA)

Legend:
[1] = biological target: T1, 6×His-TOE1 (Arabidopsis, UniProt Q9SK03 1-449); assay: pull-down; purified His-tagged protein incubated with resin bound with GST or GST-BIN2 at 4 °C for 4 h; washed five times with PBS-EW; blots with anti-His and anti-GST; settings: both partners purified
T1 construct: TOE1 (AP2-like protein) of Arabidopsis; the TOE1 ORF was cloned into pET-30a (+); Printed both as 6×His-TOE1 and TOE1-His; pET-30a(+) may add further vector residues (surmised); also called TOE1-His; TOE1-HIS; source: E. coli Rosetta (DE3), purified (Ni-NTA)
T1 sequence (Q9SK03 whole entry): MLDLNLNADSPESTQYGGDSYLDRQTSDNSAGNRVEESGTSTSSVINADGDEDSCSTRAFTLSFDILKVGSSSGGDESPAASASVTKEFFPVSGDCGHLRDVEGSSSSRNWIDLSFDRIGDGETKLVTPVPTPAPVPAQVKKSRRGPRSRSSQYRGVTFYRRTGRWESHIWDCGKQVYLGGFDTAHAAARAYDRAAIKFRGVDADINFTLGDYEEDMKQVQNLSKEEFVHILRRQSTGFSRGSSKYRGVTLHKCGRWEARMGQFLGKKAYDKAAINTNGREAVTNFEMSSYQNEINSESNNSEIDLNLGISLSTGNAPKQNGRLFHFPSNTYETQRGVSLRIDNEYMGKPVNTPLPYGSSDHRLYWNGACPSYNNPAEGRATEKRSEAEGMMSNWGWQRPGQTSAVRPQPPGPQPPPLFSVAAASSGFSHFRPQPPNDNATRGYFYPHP

[2] = biological target: B1; assay: as above; settings: both partners purified

Binder | binding result [1] | binding result [2]
B1 | binds | –
B2 | – | binds
